# From patent US20240209061A1, “FUSION PROTEINS AND USES THEREOF” (Pfizer Inc., priority 2020, published 2024)
# Legend:
# [1] = Thermal stability by Differential Scanning calorimetry (DSC); assay type: physicochemical; details: PBS
# Experimental: There is a correlation between the thermal stability of a protein with the overall stability of the protein. Enhanced thermal stability often provides improved manufacturability and longer shelf life/stability. Thermal stability of variant CD80-Fc fusion proteins was assessed by Differential Scanning calorimetry (DSC). Variant CD80-Fc fusion proteins were analyzed using a MicroCal VP-DSC instrument. […] Tables 8-10 show the first thermal transition temperature (Tm1) of CD80-Fc fusion proteins and the enhanced thermal stability of variant CD80-Fc fusion proteins compared to CD80-WT-Fc fusion proteins.
# [2] = tested on: human peripheral blood mononuclear cells (PBMCs); assay: Human PBMC IL-2 production assay with plate-bound anti-CD3; assay type: cell-based; details: Donor 418; 0.3 ug/ml anti-CD3
# Experimental: The ability of the variant CD80-Fc fusion proteins to promote IL-2 production in the context of anti-CD3 (to stimulate T cell receptor signaling) in human peripheral blood mononuclear cells (PBMCs) was tested. To bind anti-CD3 antibody on the plate, the anti-human-CD3 (clone HIT3a, BD Pharmingen) was incubated in 96-well plates at 4° C. overnight at 1 μg/ml unless otherwise noted. Human PBMCs were isolated from freshly collected human whole blood using Ficoll-Paque Plus. Human PBMCs (100,000 per well) were incubated with plate-bound anti-CD3 and the indicated concentrations of soluble CD80-Fc fusion protein in RPMI+10% HI-FBS, pen/strep, sodium pyruvate and non-essential amino acids. After 48 hours incubation, supernatants were collected and IL-2 measured by the Quantikine human IL-2 ELISA kit from R&D.
# Additional CD80-Fc fusion proteins were tested in the same PBMC assay, at the concentration of anti-human-CD3 (clone HIT3a, BD Pharmingen) noted.
# [3] = tested on: NY-ESO1-TCR+ Jurkat reporter cells; assay: Jurkat-NYESO1-IL-2-Luc and A375-CD64 co-stimulation assay; assay type: cell-based, human
# Text: Jurkat-IL-2-Luc reporter cells (Promega, Product #J1631) were engineered with T cell receptor, TCR (Wargo J. Cancer Immunol Immunother 2009; Zhao Y. J Immunol 2005, Li Y, Nat Biotechnol 2005) against HLA-A2 restricted NY-ESO1 (SLLMWITQC-SEQ ID NO: 19) epitope using lentiviral transduction system. Human melanoma cells A375, which express human HLA-A*0201, were transduced with lentiviral vector containing endogenous codon for NY-ESO1 gene (Refseq accession NM_001327.2, CCDS14758.1). Upon expression, the construct underwent proteolytic cleavage at the ubiquitin/epitope junction, thus generating free, cytoplasmic epitope, which can be translocated into the endoplasmic reticulum and loaded onto class I HLA. A375-NY-ESO1 positive cells were treated with IFNγ to induce HLA expression and NY-ESO1 antigen presentation. The HLA expression and the antigen presentation was confirmed by Western Blot. The NY-ESO1^+-A375 cells were further engineered to express human FCγRI (CD64, GenBank:AAA58414.1, RefSeq:P12314.1) for cell surface assembly and displaying of CD80-Fc fusion proteins. The expression of FCγRI was confirmed by flow cytometry analysis.
# A 96 well culture plate was seeded with NY-ESO1^+-A375 cells or NY-ESO1^+/FCγRI^+-A375 at 40,000 cells per well in 100 µL growth media (RPMI, 10% Heat Inactivated FBS, 200 μg/mL Hygromycin B, 1 mM sodium pyruvate, 0.1 mM MEM NEAA, 1 μg/mL puromycin) containing 10 ng/ml of human IFNγ (R&D Systems, product #285-IF) to induce MHC-A2 expression and grown overnight at 37° C. in CO2 incubator. To each well, NY-ESO1-TCR^+ Jurkat reporter cells, 100,000 (in 20 μL media), were added. 20 μL of serial dilutions of variant CD80-Fc fusion proteins with concentrations ranging from 0-1000 ng/ml (final concentrations per well) was added with appropriate controls. Assay plates were incubated for 6 hours at 37° C. in CO2 incubator. Following equilibration, 80 μL BioGlo luminescence reagent (BioGlo Luciferase assay kit, Promega, G7940) was added into each well. Plates were incubated for 5 minutes before reading luminescence on the EnSight™ plate reader (PerkinElmer).
# [4] = tested on: EMT6 murine breast cancer cells; assay: EMT6 breast cancer model, combination with talazoparib; assay type: in vivo, mouse
# Experimental: EMT6murine breast cancer cells (3×10^5) were orthotopically implanted in the mammary fat pad of female Balb/c mice. When tumors reached ˜90 mm^3 (day 5 after implantation), mice were randomized and dosed with PBS vehicle control, CD80-K89Q-D90Q-E23C-A26C-Fc (0.1 or 1 mg/kg), and/or 0.33 mg/kg talazoparib (Tala). CD80-D90Q-Fc was dosed on Days 0 and 3, talazoparib was dosed daily. Tumor volume was determined by caliper measurements obtained in 2 dimensions and calculated as width^2×length/2. Error bars are depicted as ±SEM
# [5] = biological target: CD28 expressed on Jurkat T cell line / human T cells (human) (UniProt P10747); assay: cell-based or functional assay
# recombinant soluble CD28 = biological target: T1, recombinant soluble CD28 (Homo sapiens, UniProt P10747); assay: ELISA binding to recombinant soluble CD28; details: standard ELISA, FIG. 2A
# T1 construct: Recombinant soluble CD28 and CTLA-4 proteins (from Creative BioMart, Product #CD28-3910H, CTLA-4-2232H) were immobilized; purchased Creative BioMart CD28-3910H
# Experimental: Binding affinity of purified CD80-Fc fusion proteins (WT and variant) to recombinant soluble CD28 and CTLA-4 proteins was determined by standard ELISA. Recombinant soluble CD28 and CTLA-4 proteins (from Creative BioMart, Product #CD28-3910H, CTLA-4-2232H) were immobilized on 96 well microtiter plate (Thermo Scientific, Product #436110) in bicarbonate buffer at 4° C. overnight. After washing with 1×PBS containing 0.05% Tween 20 (wash buffer) plates were incubated with blocking buffer, 5% BSA in PBS, for 1 hour at room temperature. A serial dilution of CD80-Fc fusion proteins and human IgG1 isotype control antibody was prepared in blocking buffer, added into the plate and incubated at room temperature for 1 hour. Following washing 3× with wash buffer, 1:4000 dilution of HRP conjugated secondary anti-human IgG1 antibody (R&D Systems, MAB110-100) was added into the plate and incubated at room temperature for 1 hour. Plates were washed 3× with wash buffer and a 100 μl of LumiGlo (SeraCare, Product #5430-0040) reagent added into each well, incubated for 5 minutes at room temperature before reading luminescence signal in EnSight™ plate reader (PerkinElmer).
# [6] = tested on: Jurkat-IL-2-Luc reporter cells; assay: Jurkat-IL-2-Luc and HCT116-CD64 reporter co-stimulation assay; assay type: cell-based, human
# Text: A T cell co-stimulation assay was designed based on T Cell Activation Bioassay (IL-2) Kit from Promega (Product #J1631). The assay consisted of a genetically engineered Jurkat T cell line that expresses luciferase reporter driven by an IL-2 promoter. Co-engagement of T cell antigen receptor (TCR/CD3) and CD28 co-stimulatory receptor induces activation of T cells and downstream intracellular signaling pathways that in turn regulate the expression of luciferase reporter. As described above, HCT116 human colon cancer cell line was used for TCR engagement using the CDH3×CD3 bispecific and genetically engineered by lentiviral transduction to express human FCγRI.
# A 96 well culture plate was seeded with HCT116 parental or HCT116-CD64 cells at 40,000 cells per well in 100 μL RPMI with 10% HI FBS and grown overnight at 37° C. in CO2 incubator. To each well, Jurkat reporter cells (100,000 per well) and 10 μL of the CDH3×CD3 bispecific (8 ng/ml final concentration) were added. 10 μL of serial dilutions of variant CD80-Fc fusion proteins with concentrations ranging from 0-1000 ng/ml (final concentrations per well) was added with appropriate controls. Assay plates were incubated for 6 hours at 37° C. in CO2 incubator for before harvesting culture supernatants and transferring to new plates. Following equilibration, 80 μL of BioGlo luminescence reagent (BioGlo Luciferase assay kit, Promega, G7940) was added into each well. Plates were incubated for 5 minutes before reading luminescence on the EnSight™ plate reader (PerkinElmer).
# Jurkat is an immortalized human T cell line, and the Jurkat IL-2-reporter assay assesses the CD28-mediated signaling resulting in activation of the IL-2 promoter. The activity of CD80-Fc fusion proteins was measured using the co-culture HCT116-CD64-Jurkat IL-2 reporter assay, as described in Example 2, but using 20 ng/ml CDH3×CD3 bispecific.
# [7] = AC-SINS self-interaction assay; assay type: physicochemical; details: Table 6
# Experimental: Variant CD80-Fc fusion proteins were assessed by measuring non-specific binding using a DNA- and insulin-binding ELISA (Avery et al., MAbs. 2018 February/March; 10(2): 244-255) and for self-interaction in an AC-SINS assay (affinity-capture self-interaction nanoparticle spectroscopy; Liu et al., 2014, mAbs 6:483-92). DNA- and insulin-binding scores were calculated as the signal ratio of the ELISA signal of the CD80-Fc fusion protein at 10 μg/ml to the ELISA signal in the absence of the Fc-fusion protein (buffer only). For the AC-SINS assay, proteins are captured by anti-human Fc antibodies coated on gold nanoparticles. […] The score ranges obtained from these in vitro assays correlate well with in vivo clearance using huFcRn transgenic (Tg32) mouse. Therapeutic proteins with high scores are at high risk for rapid clearance and unfavorable PK and therapeutics that score low are at low risk and favorable PK.
compound,measurement,setting,value
CD80-V11L-T62Y-Fc: non-cysteine stabilized variant CD80-Fc fusion protein,DSC Tm1,[1],58.76 ± 0.14 °C
same,EC50,[2],3.34 nM
CD80-D90N-Fc: variant CD80 ECD (D90N) fused to human IgG1 Fc,enhanced co-stimulation compared to CD80-WT-Fc,[3],about 4 fold
"Cn1ncnc1[C@H]1c2n[nH]c(=O)c3cc(F)cc(c23)N[C@@H]1c1ccc(F)cc1 [Talazoparib, (8S,9R)-5-fluoro-8-(4-fluorophenyl)-9-(1-methyl-1H-1,2,4-triazol-5-yl)-8,9-dihydro-2H-pyrido[4,3,2-de]phthalazin-3(7H)-one, reference compound]",% tumor growth inhibition,"[4]; Day 20, Talazoparib 0.33 mg/kg alone",10.9%
same,Day 20 tumor volume,[4]; Talazoparib 0.33 mg/kg daily alone,1750.1 mm^3
CD80-V22F-T28V-T57V-Fc: non-cysteine stabilized variant CD80-Fc fusion protein,DSC Tm1,[1],64 °C
same,EC50,[2],5.13 nM
CD80-V11L-T62Y-Fc (Fc fusion),"IL-2 EC50, human PBMC assay, donor 418, anti-CD3 0.3 ug/ml",[5],3.34 nM
CD80-D90Q-E23C-A26C-Fc (Fc fusion),"IL-2 EC50, human PBMC assay with plate-bound anti-CD3 (average of 5 donors)",[5],24.2 nM
"CD80-K89D-D90Q-Fc: variant CD80 ECD (K89D, D90Q) fused to human IgG1 Fc",binding affinity to CD28 compared to WT CD80-Fc,recombinant soluble CD28,increased binding affinity to CD28
same,enhanced co-stimulation compared to CD80-WT-Fc,[6],about 4 fold
same,enhanced co-stimulation compared to CD80-WT-Fc,[3],about 8 fold
CD80-V22F-T28V-T57V-Fc (Fc fusion),"IL-2 EC50, human PBMC assay, donor 418, anti-CD3 0.3 ug/ml",[5],5.13 nM
CD80-T28V-T57V-Fc (Fc fusion),"IL-2 EC50, human PBMC assay, donor 418, anti-CD3 0.3 ug/ml",[5],2.64 nM
CD80-K89Q-Fc: variant CD80 ECD (K89Q) fused to human IgG1 Fc,binding affinity to CD28 compared to WT CD80-Fc,recombinant soluble CD28,increased binding affinity to CD28
CD80-V11L-V22F-Fc (Fc fusion),"IL-2 EC50, human PBMC assay, donor 418, anti-CD3 0.3 ug/ml",[5],4.95 nM
CD80-V11L-V22F-Fc: non-cysteine stabilized variant CD80-Fc fusion protein,DSC Tm1,[1],61.52 ± 0.12 °C
same,EC50,[2],4.95 nM
"CD80-K89Q-D90Q-V22C-G45C-Fc: disulfide stabilized variant CD80-Fc fusion protein (K89Q, D90Q, V22C, G45C)",DSC Tm1,[1],68.67 ± 0.22 °C
same,AC-SINS Score,[7],−1
"CD80-K89D-D90N-Fc: variant CD80 ECD (K89D, D90N) fused to human IgG1 Fc",binding affinity to CD28 compared to WT CD80-Fc,recombinant soluble CD28,increased binding affinity to CD28
same,enhanced co-stimulation compared to CD80-WT-Fc,[6],about 4 fold
same,enhanced co-stimulation compared to CD80-WT-Fc,[3],about 8 fold
CD80-T28V-T57V-Fc: non-cysteine stabilized variant CD80-Fc fusion protein,DSC Tm1,[1],64 °C
same,EC50,[2],2.64 nM
"CD80-K89Q-D90Q-161C-Fc: disulfide stabilized variant CD80-Fc fusion protein (K89Q, D90Q, I61C)",DSC Tm1,[1],64.10 ± 0.17 °C
same,AC-SINS Score,[7],−1
CD80-K89D-Fc: variant CD80 ECD (K89D) fused to human IgG1 Fc,binding affinity to CD28 compared to WT CD80-Fc,recombinant soluble CD28,increased binding affinity to CD28
"CD80-K89D-D90K-Fc: variant CD80 ECD (K89D, D90K) fused to human IgG1 Fc",binding affinity to CD28 compared to WT CD80-Fc,recombinant soluble CD28,increased binding affinity to CD28
same,enhanced co-stimulation compared to CD80-WT-Fc,[6],~8 fold
CD80-D90K-Fc: variant CD80 ECD (D90K) fused to human IgG1 Fc,binding affinity to CD28 compared to WT CD80-Fc,recombinant soluble CD28,increased binding affinity to CD28
same,enhanced co-stimulation compared to CD80-WT-Fc,[6],~8 fold
same,enhanced co-stimulation compared to CD80-WT-Fc,[3],about 4 fold
